According to the supplement of paper PMC9112550, “Optimization of the antimicrobial peptide Bac7 by deep mutational scanning” (BMC Biology, 2022):

tested on: Escherichia coli TOP10; assay: shrunken log2 fold change of peptide-encoding DNA abundance (4.5 h post-induction vs induction); higher = less antimicrobial activity (less host growth inhibition); details: time post-induction: 4.5 h; library: site-saturation at positions 5, 18, 19, 20
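Further: peptides expressed intracellularly from a pBAD plasmid library in pooled LB shake-flask culture, induced with 0.3% L-arabinose, DNA abundance read by NGS, three biological replicates, DESeq2 with apeglm shrinkage.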

Sequence	shrunken log2 fold change
RRIRCRPPRLPRPRPRPMKGPRP	0.0113
RRIRLRPPRLPRPRPRPSDMPRP	-0.18
RRIRPRPPRLPRPRPRPSWLPRP	-0.0766
RRIRTRPPRLPRPRPRPMHDPRP	-0.00302
RRIRTRPPRLPRPRPRPVDEPRP	-0.146
RRIRQRPPRLPRPRPRPEFYPRP	-0.0478
RRIRRRPPRLPRPRPRPIKGPRP	0.174
RRIRKRPPRLPRPRPRPQVQPRP	0.131
RRIRMRPPRLPRPRPRPVRQPRP	0.332
RRIRDRPPRLPRPRPRPCASPRP	-0.0652
RRIRYRPPRLPRPRPRPVARPRP	-0.206
RRIRKRPPRLPRPRPRPEVKPRP	0.085
RRIRRRPPRLPRPRPRPLEPPRP	0.582
RRIRVRPPRLPRPRPRPIKWPRP	-0.161
RRIRSRPPRLPRPRPRPLDHPRP	0.0458
RRIRKRPPRLPRPRPRPNTVPRP	0.126
RRIRHRPPRLPRPRPRPCFYPRP	-0.356
RRIRLRPPRLPRPRPRPLGAPRP	0.387
RRIRDRPPRLPRPRPRPTQFPRP	0.216
RRIRPRPPRLPRPRPRPKAAPRP	0.386

Sequence	shrunken log2 fold change
RRIRYRPPRLPRPRPRPFFEPRP	-0.482
RRIRSRPPRLPRPRPRPSMAPRP	0.223
RRIRSRPPRLPRPRPRPLSSPRP	-0.329
RRIRVRPPRLPRPRPRPLIRPRP	-0.352
RRIRGRPPRLPRPRPRPDQLPRP	0.719
RRIRIRPPRLPRPRPRPQSHPRP	-0.383
RRIRERPPRLPRPRPRPSRPPRP	0.168
RRIRFRPPRLPRPRPRPAKRPRP	0.21
RRIRNRPPRLPRPRPRPNLCPRP	-0.0109
RRIRCRPPRLPRPRPRPLQSPRP	0.113
RRIRWRPPRLPRPRPRPAKPPRP	0.0169
RRIRERPPRLPRPRPRPGAQPRP	-0.23
RRIRFRPPRLPRPRPRPVNTPRP	-0.377
RRIRDRPPRLPRPRPRPGLTPRP	0.262
RRIRVRPPRLPRPRPRPNIEPRP	-0.616
RRIRVRPPRLPRPRPRPVYKPRP	-0.302
RRIRYRPPRLPRPRPRPIEDPRP	-0.274
RRIRLRPPRLPRPRPRPTEMPRP	0.037
RRIRARPPRLPRPRPRPCNFPRP	-0.478
RRIRGRPPRLPRPRPRPMYYPRP	0.197

Sequence	shrunken log2 fold change
RRIRWRPPRLPRPRPRPEPRPRP	0.886
RRIRFRPPRLPRPRPRPVIQPRP	-0.414
RRIRARPPRLPRPRPRPLHMPRP	1.15
RRIRQRPPRLPRPRPRPPGHPRP	0.249
RRIRGRPPRLPRPRPRPYPSPRP	-0.111
RRIRPRPPRLPRPRPRPECAPRP	0.698
RRIRVRPPRLPRPRPRPDMKPRP	0.0218
RRIRFRPPRLPRPRPRPKHWPRP	0.0787
RRIRFRPPRLPRPRPRPWYLPRP	-0.549
RRIRARPPRLPRPRPRPSAHPRP	0.101
RRIRIRPPRLPRPRPRPHANPRP	-0.181
RRIRGRPPRLPRPRPRPYCHPRP	0.054
RRIRNRPPRLPRPRPRPTPPPRP	0.49
RRIRPRPPRLPRPRPRPQQSPRP	-0.236
RRIRVRPPRLPRPRPRPSHLPRP	-0.443
RRIRARPPRLPRPRPRPRVGPRP	0.352
RRIRNRPPRLPRPRPRPGTLPRP	-0.0615
RRIRVRPPRLPRPRPRPDKEPRP	0.000945
RRIRMRPPRLPRPRPRPRSDPRP	0.722
RRIRIRPPRLPRPRPRPWLKPRP	4.66
